Assays:
HMGN1 = assay: two-color EMSA; details: value stated for HMGNs together, EMSA: 100 nM nucleosomes in 10 µl 2x TBE (45 mM Tris-borate pH 8.3, 1 mM EDTA), 0.15 mg/ml BSA, 5% Ficoll, 10 min at 4 °C, native 5% PAGE in 2x TBE …
HMGN2 = assay: two-color EMSA; details: value stated for HMGNs together, EMSA: 100 nM nucleosomes in 10 µl 2x TBE (45 mM Tris-borate pH 8.3, 1 mM EDTA), 0.15 mg/ml BSA, 5% Ficoll, 10 min at 4 °C, native 5% PAGE in 2x TBE …
[1] = no preference over rMN, histone H3K27me3, scale: ratio of shifted rMNH3K27me3 to rMN fluorescence
[2] = low HMGN:nucleosome ratio, histone H3K27ac, scale: ratio of shifted rMNH3K27ac to rMN fluorescence

Row | Substance | binding signal (HMGN1; [1]) | binding signal (HMGN2; [1]) | binding signal (HMGN1; [2]) | binding signal (HMGN2; [2])
1 | rMNH3K27me3 | 1 | 1 | – | –
2 | rMNH3K27ac | – | – | 1.7 | 1.7
